Ends that are not written are not given here.
Columns and labels:
[1] = target: T1, rat membrane dipeptidase (DPEP-1) (rat, UniProt P31430 17-384); test: immunofluorescence microscopy of Alexa-568 peptide on Cos-7 cells transfected with rat DPEP-1
T1 construct: whole, on cells; Transiently expressed on Cos-1 or Cos-7 cells; also called renal rat membrane dipeptidase; rat DPEP-1
Description: Cos-7 cells were transiently transfected with 5 μg of renal rat membrane dipeptidase (DPEP-1) plasmid using lipofectamine 2000 (Invitrogen) reagent. 48 hours after transfection, media was removed and cells were washed with PBS. Cells were incubated with LSALT conjugated with Alexa-488 (Green), GFE-1 peptide conjugated with Alexa-568 (Red) or control peptide conjugated with Alexa-488 (Green) on ice for 30 minutes. Cells were washed and fixed using 4% paraformaldehyde and immunofluorescence microscopy was performed to assess binding. Shown are representative photomicrographs of each experimental condition (n=2).

[2] = target: T2, human DPEP3 (human, UniProt Q9H4B8 36-463); test: immunofluorescence microscopy of Alexa-488 peptide on transfected Cos-1 cells
T2 construct: whole, on cells; Transiently expressed on Cos-1 cells
T2 sequence (looked up): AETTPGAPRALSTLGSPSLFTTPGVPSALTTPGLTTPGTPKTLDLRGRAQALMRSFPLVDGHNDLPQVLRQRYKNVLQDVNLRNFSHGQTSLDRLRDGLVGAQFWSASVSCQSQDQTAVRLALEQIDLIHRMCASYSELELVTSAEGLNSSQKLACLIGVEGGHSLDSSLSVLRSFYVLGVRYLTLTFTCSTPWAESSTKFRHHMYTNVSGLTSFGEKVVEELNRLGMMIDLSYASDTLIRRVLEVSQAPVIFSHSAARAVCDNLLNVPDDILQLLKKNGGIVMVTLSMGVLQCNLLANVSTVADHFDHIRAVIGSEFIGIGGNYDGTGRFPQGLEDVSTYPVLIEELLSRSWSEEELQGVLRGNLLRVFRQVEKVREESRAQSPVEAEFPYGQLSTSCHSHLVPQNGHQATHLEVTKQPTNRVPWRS
Description: (§1) Cos-1 cells were transiently transfected with either 3 μg of human DPEP-1, DPEP2, or DPEP3 gene using lipofectamine 2000 (Invitrogen) reagent in OptiMEM medium. 24 hours after transfection, DPEP-1, DPEP2, or DPEP3 expressing cells were re-seeded on collagen coated (neutralized) wells in 24 well plates and allowed to grow for 24 hours at 37° C. 24 hours after seeding, media was removed and cells were washed with PBS. Cells were blocked with FBS/NBSA/Tween in PBS for 30 minutes on ice. Cells were then washed with PBS and incubated with LSALT or GFE-1, conjugated with Alexa-488 (green). After incubation, cells were washed with PBS and stained with DAPI for 5 minutes on ice. Cells were then washed with PBS and fixed using 4% paraformaldehyde and immunofluorescence microscopy was performed to assess binding. Representative photomicrographs are shown for each experimental condition (n=3) in FIG. 6A. Proteins from DPEP-1, DPEP2 and DPEP3 transfected cells were isolated after 48 hours using octyl-glucoside/RIPA lysis buffer and western blot analysis was performed to assess DPEP-1, DPEP2 and DPEP3 protein expression using specific antibodies; DPEP-1 antibody (Sigma), DPEP2 (Abcam) and DPEP3 (Santacruz). Blots were stripped and reprobed with an anti-β-actin.

[3] = target: T3, human DPEP2 (human, UniProt Q9H4A9 33-463); test: as above
T3 construct: whole, on cells; Transiently expressed on Cos-1 cells
Description: as §1

[4] = target: T4, LSALT peptide (LSALTPSPSWLKYKAL)
T4 chain: LSALTPSPSWLKYKAL

[5] = target: T1, rat membrane dipeptidase (DPEP-1); test: immunofluorescence microscopy of Alexa-488 peptide on Cos-1 cells transfected with rat DPEP-1
Description: Cos-1 cells were transiently transfected with either 3 or 5 μg of membrane dipeptidase (DPEP-1) cDNA corresponding to the rat (Shown in FIG. 5A) or human DPEP-1 (Shown in FIG. 5B) gene using lipofectamine 2000 (Invitrogen) reagent in OptiMEM medium. 24 hours after transfection, DPEP-1 expressing cells were re-seeded on collagen coated (neutralized) wells in 24 well plates and allowed to grow for 24 hours at 37° C. 24 hours after seeding, media was removed and cells were washed with PBS. Cells were blocked with FBS/NBSA/Tween in PBS for 30 minutes on ice. Cells were then washed with PBS and incubated with Alexa-488 (green) conjugated LSALT, GFE-1, control peptide or DPEP-1 antibody ( 1/100) (Sigma) on ice for 30 minutes. […] After incubation, cells were washed with PBS and treated with 10 mg/ml biotin transfer peptide (LSALT, GFE-1 or Control Peptide (KGAL)] for 10 minutes. Cells were then washed with PBS and biotin transfer was enabled by UV activation of the aryl azide groups for 15 minutes at 363 nm. Residual fluid was removed and monolayers were lysed either with octyl-glucoside/RIPA or 8M urea. Isolated supernatants were rotated with 50 μl of neutr-avidin agarose beads at 4° C. for 24 hours. Beads were washed with corresponding buffers, boiled in Laemmli buffer and analyzed by western blot using a DPEP-1 specific antibody (Proteintech).

[6] = target: T5, human membrane dipeptidase (DPEP-1) (human, UniProt P16444 17-385); test: immunofluorescence microscopy of Alexa-488 peptide on Cos-1 cells transfected with human DPEP-1
T5 construct: whole, on cells; The background section describes DPEP-1 as a disulfide-linked homodimer; also called renal dipeptidase; dehydropeptidase-1
T5 sequence (looked up): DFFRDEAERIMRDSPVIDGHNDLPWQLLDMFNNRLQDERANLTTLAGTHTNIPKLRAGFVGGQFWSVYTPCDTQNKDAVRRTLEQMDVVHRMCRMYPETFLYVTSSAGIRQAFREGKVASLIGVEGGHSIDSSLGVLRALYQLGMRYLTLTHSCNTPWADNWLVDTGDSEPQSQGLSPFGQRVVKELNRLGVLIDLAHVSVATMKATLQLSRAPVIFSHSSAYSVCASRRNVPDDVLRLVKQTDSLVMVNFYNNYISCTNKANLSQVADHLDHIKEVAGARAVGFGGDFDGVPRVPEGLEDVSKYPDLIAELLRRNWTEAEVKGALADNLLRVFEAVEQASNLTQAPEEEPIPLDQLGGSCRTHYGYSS

T1 sequence (P31430 17-384): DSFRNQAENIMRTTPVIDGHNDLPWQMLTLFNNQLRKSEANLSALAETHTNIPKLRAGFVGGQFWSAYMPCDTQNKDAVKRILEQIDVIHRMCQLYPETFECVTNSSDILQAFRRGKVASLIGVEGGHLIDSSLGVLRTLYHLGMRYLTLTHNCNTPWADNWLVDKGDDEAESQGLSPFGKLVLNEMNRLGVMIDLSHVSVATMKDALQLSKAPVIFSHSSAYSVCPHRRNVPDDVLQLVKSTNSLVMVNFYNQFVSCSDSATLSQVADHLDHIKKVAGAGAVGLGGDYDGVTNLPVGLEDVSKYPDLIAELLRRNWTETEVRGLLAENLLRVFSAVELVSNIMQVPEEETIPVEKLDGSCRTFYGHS
T3 sequence (Q9H4A9 33-463): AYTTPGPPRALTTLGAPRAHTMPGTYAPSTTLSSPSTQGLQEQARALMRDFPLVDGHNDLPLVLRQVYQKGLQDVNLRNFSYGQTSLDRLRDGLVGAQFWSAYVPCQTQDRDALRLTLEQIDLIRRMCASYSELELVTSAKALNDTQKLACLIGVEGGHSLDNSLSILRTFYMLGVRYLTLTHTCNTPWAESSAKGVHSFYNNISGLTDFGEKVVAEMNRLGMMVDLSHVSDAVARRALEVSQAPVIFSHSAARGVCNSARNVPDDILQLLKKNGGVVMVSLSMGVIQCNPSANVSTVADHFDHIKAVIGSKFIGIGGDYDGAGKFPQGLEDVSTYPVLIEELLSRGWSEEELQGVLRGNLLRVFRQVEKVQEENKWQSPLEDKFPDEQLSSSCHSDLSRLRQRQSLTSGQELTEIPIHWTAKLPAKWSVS

B1: GFE-1 peptide (CGFECVRQCPERC) (peptide)
peptide: CGFECVRQCPERC
modifications: cysteine pairing not given here; also: conjugated with Alexa-488 or Alexa-568, attachment site not given here
B1: binds [1]; no binding [2]; no binding [3].

B2: human membrane dipeptidase (DPEP-1) (protein)
chain: T5 sequence (looked up)
With B2 the “membrane dipeptidase (DPEP-1) enzyme activity (Gly-D-Phe substrate, fluorimetric detection of D-Phe)” value [4] was “LSALT does not Inhibit Membrane Dipeptidase (DPEP-1) Enzyme Activity”.

B3: LSALT peptide (LSALTPSPSWLKYKAL) (peptide)
peptide: LSALTPSPSWLKYKAL
modifications: also: Alexa-488 conjugate in binding assays, site not given here
notes: Phage-display derived peptide; also called Metablok
B3: binds [5]; binds [6]; no binding [2]. B3: no binding [3].

— US20200078442A1 (ARCH BIOPARTNERS, published 2020)
